Test results: patent publication US20200239573A1 (CRESCENDO BIOLOGICS, published 2020)

Key:
[1] = target: T1, recombinant human PD-1 Fc chimera (human, UniProt Q15116 25-167); assay: HTRF binding, 2 nM PD-1, anti-Fc cryptate and anti-His-D2
T1 construct: Bought protein; also called human PD-1-huFc; huPD-1-Fc; not shown: human Fc
Protocol: (§1) e) Species Cross Reactivity Testing Purified […] were tested for their ability to bind to human PD-1 (R&D Systems cat no. 1086-PD), cynomolgus PD-1 (Acro Biosystems cat no. PD-1-05254) and mouse PD-1 (R&D Systems cat no. 1021-PD) in an HTRF Binding assay format. All reagents and serially diluted VH were prepared in assay buffer containing PBS, 0.1% BSA and 0.4M Potassium Fluoride. Samples or assay buffer (non-specific binding) were incubated with 2 nM human/cynomolgus or mouse PD-1, 1 nM Anti human-Fc Cryptate PAb (Cisbio cat. no. 61HFCKLB) and 30 nM anti His-D2 (CisBio cat no 61HISDLA) in black 384-shallow well assay plates for a minimum of 3 hours at room temperature. Time-resolved fluorescent emission at 620 nm and 665 nm was measured following excitation at 337 nm on the BMG PHERAstar plate reader. The HTRF ratio were calculated ((665 nm emission/620 nm emission)*10000) and the data corrected for (non-specific binding) to give the specific binding signal.

[2] = target: T2, cynomolgus PD-1 recombinant protein (cynomolgus, UniProt B0LAJ3 25-170); assay: as above
T2 construct: Detected with anti human-Fc cryptate, so probably Fc tagged; also called cyno PD-1; cynomolgus PD-1 (Acro Biosystems cat no. PD-1-05254); not shown: The vendor's carrier tag; It is probably a human Fc, since detection used anti human-Fc cryptate
T2 sequence (B0LAJ3 entry or part of it limits assumed): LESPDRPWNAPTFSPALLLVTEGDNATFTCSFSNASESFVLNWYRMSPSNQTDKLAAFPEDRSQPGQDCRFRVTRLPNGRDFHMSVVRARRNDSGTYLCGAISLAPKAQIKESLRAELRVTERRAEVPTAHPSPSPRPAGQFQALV
Protocol: as §1

[3] = target: human PD-1 on primary human CD4+ T cells (human, UniProt Q15116 21-288); assay: flow cytometry, PHA-stimulated human CD4+ T cells, donor 4
Sequence of human PD-1 on primary human CD4+ T cells (Q15116 21-288): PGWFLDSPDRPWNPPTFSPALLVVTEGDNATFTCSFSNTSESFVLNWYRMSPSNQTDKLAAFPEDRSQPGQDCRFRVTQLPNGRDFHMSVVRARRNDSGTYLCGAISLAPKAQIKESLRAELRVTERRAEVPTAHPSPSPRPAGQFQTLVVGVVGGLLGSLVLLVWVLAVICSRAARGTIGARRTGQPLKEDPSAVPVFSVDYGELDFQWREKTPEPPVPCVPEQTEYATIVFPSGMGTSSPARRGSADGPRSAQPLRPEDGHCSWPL
Protocol: Binding of monovalent single domain antibodies and multivalent binding agents to T cells was measured using flow cytometry. […] T-cells were stimulated with 2.5 μg/ml PHA for 2-4 days in RPMI media supplemented with 10% FBS, 2 mM Glutamine, 1× Pen/Strep. Cells were transferred into 96 well plates (75000 per well), blocked for 10 mins with PBS/1% BSA, then incubated with serially diluted VH in staining buffer (PBS/1% BSA) for 1 hour at 4° C. Cells were washed with staining buffer by centrifugation then incubated with 10 μg/ml biotinylated Anti His antibody for 40 mins at 4° C. Cells were washed again then stained with Streptavidin Alexa Fluor-488 (10 μg/ml) and 1:5000 diluted Live Dead near IR stain (Molecular Probes cat no. L10119) for 30 mins at 4° C. After further washing cells were fixed and fluorescence measured by flow cytometry.

[4] = target: T1, recombinant human PD-1 Fc chimera; assay: SPR Biacore T200, PD-1-huFc amine-coupled, single cycle kinetics
Protocol: Binding kinetics of certain VH single domain antibodies binding to human PD-1-huFc were measured by surface plasmon resonance (SPR) technology using Biacore T200 instrument (GE Healthcare). Recombinant human PD-1-huFc was immobilized by standard amine coupling to CM5 sensorschip (GE Healthcare) using in range of 0.1-0.01 mg/ml solution of antigen in 10 mM sodium acetate at pH 5.5. For the reference flow cell, a blank immobilisation was carried out. Single cycle kinetics assays were used to study the interaction, a five point, three-fold dilution series of each Humabody® was made with a top concentration of 30 nM. The binding kinetics were followed by flowing the Humabody® over the chip surface in HBS EP+ buffer at a flow rate of 30 μl/min. The contact time for each of the association steps was 180 seconds and the dissociation step was varied between 1200-3600 seconds. The data was fitted to a 1:1 binding model after double reference subtraction using the Biacore T200 Evaluation software.

[5] = target: T3, human PD-1 expressed on cells (CHO human PD-1 cells) (human, UniProt Q15116 21-288); assay: FMAT direct binding to CHO human PD-1 cells; column headed CHO PD-1 binding IC50 (M)
T3 construct: also called CHO TREX human PD-1 cell line; CHO PD-1
T3 sequence (Q15116 21-288): as above
Excerpt: Plates were read in the FL2 (502 nm-537 nm) and FL5 (677-800 nm) channels on the TTP Mirrorball plate reader following excitation at 488 nm and 640 nm.

[6] = target: T3, human PD-1 expressed on cells (CHO …); assay: FMAT 1.57 epitope competition on CHO human PD-1 cells; competitor 1.57-Strep; sample kept 1 day in human serum
[7] = target: T3, human PD-1 expressed on cells (CHO …); assay: FMAT 1.57 epitope competition on CHO human PD-1 cells; competitor 1.57-Strep; sample kept 1 day in mouse serum
Protocol: (§2) For the epitope competition assay reagents were prepared in FMAT assay buffer. […] Plates were incubated for a minimum of 1.5 hours at room temperature then fluorescence measured in the FL2 (502 nm-537 nm) and FL5 (677-800 nm) channels on the Mirrorball plate reader (TTP) following excitation at 488 nm and 640 nm. Data was expressed as a % of the total binding control (i.e. % control) after subtraction of the background signal determined from the non-specific binding control wells.
(§3) Serum stability of VH and multivalent VH constructs was assessed by measurement of their activity following incubation for 0, 1, 4 or 7 days in mouse serum (Sigma M5905).

[8] = target: T3, human PD-1 expressed on cells (CHO …); assay: FMAT 1.57 epitope competition on CHO human PD-1 cells; competitor 1.57-Strep; sample kept 0 days in mouse serum
Protocol: as §2, §3

[9] = target: T3, human PD-1 expressed on cells (CHO …); assay: FMAT 1.57 epitope competition on CHO human PD-1 cells; competitor 1.57-Strep; sample kept 7 days in human serum
[10] = target: T3, human PD-1 expressed on cells (CHO …); assay: FMAT 1.57 epitope competition on CHO human PD-1 cells; competitor 1.57-Strep; sample kept 7 days in mouse serum
Protocol: as §2, §3

[11] = target: T3, human PD-1 expressed on cells (CHO …); assay: FMAT 1.57 epitope competition on CHO human PD-1 cells; competitor 1.57-Strep; sample kept 0 days in human serum; Day 0, Human column

T1 sequence (Q15116 25-167 limits assumed, change not shown): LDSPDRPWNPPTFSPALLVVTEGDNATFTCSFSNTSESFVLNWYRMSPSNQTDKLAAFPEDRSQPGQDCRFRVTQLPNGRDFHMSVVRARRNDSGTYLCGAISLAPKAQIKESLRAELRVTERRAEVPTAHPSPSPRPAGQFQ

B1: Humabody® 1.92 (VHH)
VHH: EVQLVESGGGLVKPGGSLRLSCAASGFTFSDESMTWMRQAPGKGLEWVSYISSGGGVKFYADSVKGRFTISRDNAKNSLYLQMNSLRAEDTAVYYCAREAPLRLGESPHDAFDISGQGTMVTVSS
notes: human VH single domain antibody
[1]
  EC50: 2.6 nM
[2]
  EC50: 4.1 nM
[3]
  EC50: 0.9 nM
[4]
  Kd: 0.059 nM
  koff: 3.67e-05 s⁻¹
  kon: 620000 M⁻¹ s⁻¹
[5]
  EC50: 0.1 nM
[6]
  IC50: 4.9 nM
[7]
  IC50: 4.4 nM
[8]
  IC50: 4.4 nM
[9]
  IC50: 5.4 nM
[10]
  IC50: 5.2 nM
[11]
  IC50: 5.7 nM
